Changes are numbered by the printed parent chain.
What was measured:
[1] = biological target: bovine submaxillary mucin (bovine); assay: ELISA on BSM-coated wells; periodate-sensitive signal
[2] = biological target: bovine submaxillary mucin (bovine); assay: ELISA on BSM-coated wells; antibody from one liter production

B1: Humanized 2G12-2B2 VL0,VH3 (antibody, V domains shown)
VH: EVQLVQSGAEVKKPGASVKVSCKASGYTFTDHAIHWVRQAPGQGLEWMGYFSPGNDDIKYNEKFRGRVTMTADKSSSTAYMELRSLRSDDTAVYFCKRSLSTPYWGQGTLVTVSS
VL: DIVMTQSPDSLAVSLGERATINCKSSQSLLNRGNHKNYLTWYQQKPGQPPKLLIYWASTRESGVPDRFSGSGSGTDFTLTISSLQAEDVAVYYCQNDYTYPYTFGQGTKVEIK
[1]
  EC50: 4.2 nM
[2]
  EC50: 0.8 nM

B2: Humanized 2G12-2B2 VL0,VH2 (antibody, V domains shown)
VH: B1 VH with E1Q, V20I, M48I, M70L
VL: B1 VL
[1]
  EC50: 1.8 nM

B3: Humanized 2G12-2B2 VL2,VH1 (antibody, V domains shown)
VH: B1 VH with E1Q
VL: B1 VL with A19V, I21M, N22S
[1]
  EC50: 4.4 nM

B4: Humanized 2G12-2B2 VL0,VH1 (antibody, V domains shown)
VH: B1 VH with E1Q
VL: B1 VL
[1]
  EC50: 4.5 nM

B5: Humanized 3F1 VL1,VH2 (antibody, V domains shown)
VH: QVQLVQSGAEVKKPGASVKISCKASGYTFTDHAIHWVRQAPGQGLEWIGYISPGNGDIKYNEKFKDRVTLTADKSSSTASMHLRSLRSDDTAVYFCKRSLLALDYWGQGTLVTVSS
VL: DIQMTQSPSSLSASVGDRVTITCKASQDVGTNIAWYQQKPGKAPKVLIYSASTRHTGVPSRFSGSGSGTDFTLTISSLQPEDFATYFCQQYSSFPLTFGQGTKVEIK
[1]
  EC50: 1.4 nM
[2]
  EC50: 0.57 nM

B6: Humanized 3F1 VL1,VH3 (antibody, V domains shown)
VH: B5 VH with Q1E, I20V, I48M, N55S, L70M, S80Y, H82Q
VL: B5 VL
[1]
  EC50: 12.2 nM

B7: Humanized 3F1 VL1,VH4 (antibody, V domains shown)
VH: B5 VH with Q1E, N55S
VL: B5 VL
[1]
  EC50: 6.5 nM

Reference: patent publication US20230331868A1
